In patent US20140004107A1 (published 2014):
Positions count from the first letter of the chain named.

T1: cynomolgus monkey ST2 (SPR analyte) (cynomolgus monkey, UniProt Q01638 19-322 (human entry))
T1 construct: The cyno ST2 reagent injected in SPR; leader is 1-18; also called cy ST2
T1 chain: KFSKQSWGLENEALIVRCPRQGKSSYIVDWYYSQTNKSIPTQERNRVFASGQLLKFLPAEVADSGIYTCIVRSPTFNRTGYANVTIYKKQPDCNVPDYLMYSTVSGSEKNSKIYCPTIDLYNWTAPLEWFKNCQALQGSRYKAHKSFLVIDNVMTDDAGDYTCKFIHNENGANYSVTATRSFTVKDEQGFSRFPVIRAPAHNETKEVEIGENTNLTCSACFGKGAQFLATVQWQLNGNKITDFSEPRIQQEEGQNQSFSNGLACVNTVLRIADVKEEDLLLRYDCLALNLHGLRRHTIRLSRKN

T2: human ST2 (SPR analyte) (human, UniProt Q01638 19-322)
T2 construct: The ST2 reagent injected in SPR; leader is 1-18; also called hu ST2
T2 sequence: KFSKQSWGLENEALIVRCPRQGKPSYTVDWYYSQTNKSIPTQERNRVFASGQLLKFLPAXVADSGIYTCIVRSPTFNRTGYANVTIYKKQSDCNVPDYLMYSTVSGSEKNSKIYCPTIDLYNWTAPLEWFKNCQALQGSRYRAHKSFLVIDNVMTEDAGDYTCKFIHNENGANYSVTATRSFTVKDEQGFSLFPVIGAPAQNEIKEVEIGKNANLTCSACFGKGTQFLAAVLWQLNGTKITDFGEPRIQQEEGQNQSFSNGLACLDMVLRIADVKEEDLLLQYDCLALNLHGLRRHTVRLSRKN

T3: cynomolgus monkey ST2 on cynomolgus CD4+ T cells (cynomolgus monkey, UniProt Q01638 19-556 (human entry))
T3 chain: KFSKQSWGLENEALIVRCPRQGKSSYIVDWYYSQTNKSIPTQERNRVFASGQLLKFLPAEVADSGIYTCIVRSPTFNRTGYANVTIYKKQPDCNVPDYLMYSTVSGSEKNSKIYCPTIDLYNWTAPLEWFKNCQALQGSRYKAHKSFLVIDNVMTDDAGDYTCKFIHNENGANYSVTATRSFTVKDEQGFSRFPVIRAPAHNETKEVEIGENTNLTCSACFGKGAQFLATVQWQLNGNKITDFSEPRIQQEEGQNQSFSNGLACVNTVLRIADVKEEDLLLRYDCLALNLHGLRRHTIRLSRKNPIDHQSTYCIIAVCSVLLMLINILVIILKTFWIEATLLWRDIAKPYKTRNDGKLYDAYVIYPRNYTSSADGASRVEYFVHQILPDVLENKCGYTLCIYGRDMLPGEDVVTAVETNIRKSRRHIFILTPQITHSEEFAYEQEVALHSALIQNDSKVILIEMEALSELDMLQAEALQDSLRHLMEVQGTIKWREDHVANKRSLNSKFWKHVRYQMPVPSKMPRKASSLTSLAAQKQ

T4: human ST2 on human primary cells (human, UniProt Q01638 19-556)
T4 sequence: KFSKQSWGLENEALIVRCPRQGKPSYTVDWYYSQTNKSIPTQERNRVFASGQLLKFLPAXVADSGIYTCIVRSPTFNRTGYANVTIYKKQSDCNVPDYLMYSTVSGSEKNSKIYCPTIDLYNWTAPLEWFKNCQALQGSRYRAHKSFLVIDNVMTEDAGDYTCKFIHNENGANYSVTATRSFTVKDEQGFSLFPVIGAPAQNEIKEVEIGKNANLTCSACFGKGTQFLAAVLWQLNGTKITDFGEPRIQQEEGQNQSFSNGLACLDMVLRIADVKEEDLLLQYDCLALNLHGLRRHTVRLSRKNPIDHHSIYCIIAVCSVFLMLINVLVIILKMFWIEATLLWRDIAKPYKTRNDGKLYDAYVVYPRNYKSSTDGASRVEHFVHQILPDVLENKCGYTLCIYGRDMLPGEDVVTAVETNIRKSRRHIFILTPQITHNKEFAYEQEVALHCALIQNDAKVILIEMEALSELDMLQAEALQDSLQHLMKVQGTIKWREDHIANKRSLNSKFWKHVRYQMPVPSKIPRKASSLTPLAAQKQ

T5: soluble human ST2-FLAG His (human, UniProt Q01638 19-322, limits assumed)
T5 construct: also called human ST2-FH; 6xhistidine tagged human ST2; not shown: FLAG and 6x histidine tags
T5 sequence: T2 sequence

T6: biotinylated human ST2-Fc (human, UniProt Q01638 19-331, biotinylated)
T6 construct: also called ST2-Fc fusion protein; not shown: human antibody Fc domain
T6 sequence: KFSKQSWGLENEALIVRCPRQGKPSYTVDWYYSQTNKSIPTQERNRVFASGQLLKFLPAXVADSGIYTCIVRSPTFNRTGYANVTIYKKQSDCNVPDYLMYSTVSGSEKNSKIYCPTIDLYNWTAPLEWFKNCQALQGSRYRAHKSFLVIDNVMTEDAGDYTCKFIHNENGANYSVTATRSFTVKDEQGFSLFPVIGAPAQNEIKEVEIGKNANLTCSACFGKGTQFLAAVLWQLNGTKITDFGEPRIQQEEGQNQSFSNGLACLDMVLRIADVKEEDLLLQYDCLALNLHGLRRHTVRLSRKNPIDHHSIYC

B1: Ab1 (antibody, human IgG2, kappa, V domains shown)
VH: QVQLVQSGAEVKKPGASVKVSCKVSGYTLTELSIHWVRQAPGKGLEWMGGFGPEDGETIYAQKFQGRVTMTEDTSTDTAYMELSSLRSEDTAVYYCTTEDSSGLFDYWGQGTLVTVSS
VL: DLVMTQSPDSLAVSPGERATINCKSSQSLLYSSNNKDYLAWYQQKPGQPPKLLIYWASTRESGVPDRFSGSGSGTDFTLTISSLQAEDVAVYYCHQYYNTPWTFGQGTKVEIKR
notes: fully human anti-ST2 antibody
B2: Ab4 (antibody, human IgG2, kappa, V domains shown)
VH: QVQLVQSGAEVKKPGASVKVSCEVSGFILTELSVNWVRQAPGKGLEWMGGFDPEDGKTIYAQKFQGRVTLTEDTSTDTAYMELSSLRSEDTAVYYCATWWDFHFDFWGQGTLVTVSS
VL: DFVMTQTPLSLSVTPGQPASISCKSSQSLLHSNGKTYLYWFLQKPGQPPQLLIYEVSNRFSGVPDRFSGSGSGTDFTLKISRVEAEDVGVYYCMQSIQLPLTFGGGTKVEIKR
notes: fully human anti-ST2 antibody
B3: Ab3 (antibody, human IgG2, kappa, V domains shown)
VH: EVQLVESGGGLVQPGGSLRLSCAASGFTFSTYDMHWIRQAPGKNLEWVSAIDLAGDTYYPGSVKGRFTISREDAKNSLYLQMNSLRAGDTAVYYCARGGDGYNYDYYGIDVWGQGTTVTVSS
VL: DIVMTQSPLSLPVTPGEPASISCRSSQSLLHSDGYHYLDWYLQKPGQSPQLLIYLGSNRASGVPDRFTGSGSGTDFTLKISRVEAEDVGVYYCMQALQILTFGGGTKVEIKR
notes: fully human anti-ST2 antibody
B4: Ab6 (antibody, human IgG2, kappa, V domains shown)
VH: B3 VH with I37V, A40T, P41T, N44G
VL: B3 VL with T68S, K79N, I99T
notes: fully human anti-ST2 antibody
B5: Ab7 (antibody, human IgG2, kappa, V domains shown)
VH: B3 VH with I37V, A40T, P41T, N44G
VL: B3 VL with T68S, K79N, I99T
notes: fully human anti-ST2 antibody
B6: Ab5 (antibody, human IgG2, kappa, V domains shown)
VH: EVQLVESGGGWVQPGGSLRLSCAASGFTFSSYDMYWVRQATGKGLEWVSGIDTVGDTYYPDSVKGRFTISRENAKNSVYLQMNTLRAGDTAVYYCVRGIYGDFYYYGLDVWGHGTTVTVSS
VL: B3 VL with H31Y, Y35N, H36N, Q50H, T68S, E86D, I99T
B7: Ab32 (antibody, human IgG2, kappa, V domains shown)
VH: EVQLVESGGGLVQPGGSLRLSCAASGFTFSTFDMHWVRQATGKGLEWVSSIDTEGDTYYSGSVKGRFTISRENARNSLYLQMNSLRAGDTAVYYCTRGEDWSDDDYYYGLDVWGQGTTVTVSS
VL: NIVMTQTPLSLSVTPGQPASISCKSSQSLLHSDGKTYLFWYLQKPGQPPQLLIYGVSNRFSGVPDRFSGSGSGTDFTLKISRVEAEDVGVYYCMQSLQLFTFGPGTKVEIKR
notes: fully human anti-ST2 antibody
B8: Ab33 (antibody, human IgG2, kappa, V domains shown)
VH: B7 VH with A40V, T41P, V48I, S60P
VL: B7 VL with Y92S, E109D
notes: fully human anti-ST2 antibody
B9: Ab30 (antibody, human IgG2, kappa, V domains shown)
VH: QVQLVESGGGVVQPGRSLRLSCTASGFTFSSHGMHWVRQAPGKGLEWVTIIWFDGNNKYYADSVEGRFTISRDNSKNTLFLQMNSLRAEDTAVYYCAREGAEQGFIDLWGRGTLVTVSS
VL: DIQMTQSPSSLSASVGDRVTITCQASQDISNYLNWYHQKPGKAPKLLIYDASNLETGVPSRFSGSGSGTDFTFTISGLQPEDIATYYCQQHDNLPLTFGGGTKVEIKR
notes: fully human anti-ST2 antibody

Target: T1, cynomolgus monkey ST2 (SPR analyte)
Test: SPR Biacore 3000, captured antibody, ST2 analyte, 25 C

Kd [pM] | koff [s⁻¹] | kon [M⁻¹ s⁻¹] | Binder
117 | 0.000197 | 1.69e+06 | B1
516 | 0.00129 | 2.5e+06 | B2
127 | 8.55e-05 | 674000 | B3

Each binder was assayed against T2, human ST2 (SPR analyte) in the same assay as above.

Kd [pM] | koff [s⁻¹] | kon [M⁻¹ s⁻¹] | Binder
77.7 | 0.000111 | 1.43e+06 | B1
301 | 0.000706 | 2.35e+06 | B2
238 | 9.5e-05 | 400000 | B3

These binders were tested against T2, human ST2 (SPR analyte) (assay: SPR Biacore 4000, association at pH 7.4, dissociation at pH 5.5 (estimated kd)).
Method: (§1) The association (5 min) rates at pH 7.4 and dissociation (10 min) rates at pH 5.5 and 7.4 were monitored at a flow rate of 30 uL/min. The reference subtracted data was fit to a 1:1 model in Scrubber.

koff [s⁻¹] | Binder
0.0118 | B1
0.0107 | B2
7.91e-05 | B3

Target: T3, cynomolgus monkey ST2 on cynomolgus …
Test: cell-based or functional assay

IC-50, cynomolgus monkey CD4+ T cell IFNγ release assay (IL-33, IL-2 and IL-12p70 stimulation) [pM] | Binder
15.8 | B1
4.03 | B2
47.1 | B4
40 | B5
12.9 | B6
15.2 | B3

Each binder was assayed against T2, human ST2 (SPR analyte) (assay: SPR Biacore 4000, association at pH 7.4, dissociation at pH 7.4 (estimated kd)).
Method: as §1

koff [s⁻¹] | Binder
0.000134 | B1
0.000632 | B2
2.73e-05 | B3

Target: T1, cynomolgus monkey ST2 (SPR analyte)
Test: SPR ProteOn XPR-36, captured antibody, ST2 analyte, 25 C

Kd [pM] | Binder
55.8 | B7
77.6 | B8
10.2 | B9

These binders were tested against T2, human ST2 (SPR analyte) in the same assay as above.

Kd [pM] | Binder
60.2 | B7
84.4 | B8
9.7 | B9

Each binder was assayed against T2, human ST2 (SPR analyte) (assay: SPR Biacore 4000, kd at pH 5.5 against kd at pH 7.4).
Method: as §1

pH 5.5/pH 7.4 koff fold change [fold] | Binder
88.1 | B1
16.9 | B2
2.9 | B3

These binders were tested against T4, human ST2 on human primary cells (assay: cell-based or functional assay).

IC-50, human eosinophil IL-8 release assay (IL-33 and IL-3 stimulation) [pM] | Binder
51.5 | B1
14.1 | B2
63 | B4
40.7 | B5
73.3 | B6
50.4 | B3

Target: T4, human ST2 on human primary cells
Test: cell-based or functional assay
Remark: another data set of the same source

IC50 of inhibition of human IL-33-induced IL-5 production from human CD4+ T cells [pM] | Binder
10700 | B1
64500 | B6

The binders below were run against T5, soluble human ST2-FLAG His (assay: AlphaScreen, biotinylated human IL-33 with human ST2-FH, antibody at 12.5 ug/ml).

% inhib ST2-IL33 AS 12.5 ug/ml [%] | Binder
98.1 | B1
98.4 | B2
98.5 | B4
98.9 | B5
98.8 | B3

The binders below were run against T6, biotinylated human ST2-Fc (assay: AlphaScreen, IL-33 mediated association of biotinylated human ST2-Fc with human AcP-FH, antibody at 12.5 ug/ml).
Method: In the second assay, antibodies were evaluated for the ability to inhibit the IL-33 mediated association of ST2 with the co-receptor AcP. […] The ST2/AcP AlphaScreen was conducted in 8 ul reactions in a 384 well optiplate (Perkin Elmer). […] After the addition of all assay components the plates were incubated overnight in the dark at room temperature. The next day the plates were read on a 2103 Envision multilable reader (Perkin Elmer) using the same parameters as above for the first assay.

% inhib ST2-AcP AS 12.5 ug/ml [%] | Binder
86.9 | B1
77.8 | B2
71.2 | B4
75.7 | B5
68.7 | B3
